In patent US20120121613:

Legend:
unmodified FVIII mutein = unmodified FVIII mutein (UniProt P00451)
[1] = target: PEG-linker-FVIII (FVIII mutein conjugated to PEG through a thrombin-cleavable linker, linker not named in Example 2) (UniProt P00451)
[2] = target: PEG-FVIII (FVIII mutein directly, non-cleavably conjugated to PEG) (UniProt P00451)

thrombin
SDS-PAGE after thrombin digestion (30 min at 37° C.) (unmodified FVIII mutein): After thrombin digestion, the FVIII light and heavy chains disappear and are replaced by cleavage products. | SDS-PAGE after thrombin digestion (30 min at 37° C.) [1]: the PEG-conjugated light chain almost completely disappeared in SDS-PAGE analysis, indicating a complete removal of PEG | SDS-PAGE after thrombin digestion [2]: there was no removal of PEG-conjugated light chain (lane 4)
